Experimental findings from article PMC7591920, “A protein tertiary structure mimetic modulator of the Hippo signalling pathway” (Nature Communications, 2020) are described below.

Common to all, as to assay: SPR; GST-hTEAD1 and mTEAD4 covalently tethered (NHS/EDC) on CM5 chips, 2000–3000 RU; peptides as analytes, threefold dilutions, typically 30 µM top concentration; 10 mM HEPES, 150 mM NaCl, 0.05% Tween-20, pH 7.4, 0.3% DMSO, 20 °C; steady-state fit, 1:1 model
For orientation: SPR reads the build-up and loss of mass on a sensor chip optically.

The target in experiment [1] is GST-hTEAD1(209–426) (human), P28347.
For experiment [2], the target named is T1, mouse TEAD4(210–427), as purified (SPR) (mouse), Q62296.
T1 chain: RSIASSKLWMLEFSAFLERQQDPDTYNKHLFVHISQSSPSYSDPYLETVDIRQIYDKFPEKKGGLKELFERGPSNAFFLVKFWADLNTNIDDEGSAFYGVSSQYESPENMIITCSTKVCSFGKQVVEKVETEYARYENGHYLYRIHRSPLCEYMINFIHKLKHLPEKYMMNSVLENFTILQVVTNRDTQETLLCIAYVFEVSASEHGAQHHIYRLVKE

Experiment [3] deals with GST-hTEAD1(209–426) (human) (UniProt P28347).

For orientation: Kd means the constant that tells how readily two partners part at equilibrium. As for DTWLQIKAA (modifications not checked) [isolated helix peptide 6 derived from the VGL4 two-helix motif 4, Q80V24 203-256], the dissociation constant (Kd) in experiment [1] and in experiment [2] was over 100 µM throughout.

B1: VGL4(203–256), full-length VGL4-derived TEAD binding sequence (peptide 1) (peptide)
peptide: DPVVEEHFRRSLGKNYKEPEPAPNSVSITGSVDDHFAKALGDTWLQIKAAKDSA
With B1, in experiment [3], the Kd turned out to be 1.4 µM.

For KEPEPAPNSVSITG (modifications not checked) [VGL4 intervening extended stretch peptide (peptide 3), Q80V24 203-256], the Kd in experiment [1] and in experiment [2] was over 100 µM each time.

As for SVDDHFAKALG (modifications not checked) [isolated helix peptide 5 derived from the VGL4 two-helix motif 4, Q80V24 203-256], the dissociation constant (Kd) in experiment [1] and in experiment [2] was over 100 µM each time.

For the molecule SVDDHFAKALGDTWLQIKAA (modifications not checked) [VGL4 C-terminal two-helix motif peptide (peptide 4, helices α2/α3), Q80V24 203-256], the results for the Kd in experiment [1] and in experiment [2] were 4.3 µM and 3.1 µM, respectively.

Turning to DPVVEEHFRRSLGKNY (modifications not checked) [VGL4 N-terminal α-helix peptide (peptide 2, helix α1), Q80V24 203-256], the dissociation constant Kd in experiment [1] came to 19.4 µM; in experiment [2] it was 21.8 µM.
